Measurements from US20150037339A1 (Regeneron, published 2015).

Legend:
[1] = target: T1, Activin B (human, UniProt P09529 293-407); assay: cell-based or functional assay
T1 chain: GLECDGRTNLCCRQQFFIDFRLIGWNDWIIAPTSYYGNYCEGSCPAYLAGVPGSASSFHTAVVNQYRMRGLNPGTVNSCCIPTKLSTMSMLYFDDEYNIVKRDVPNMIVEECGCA

[2] = target: T2, Activin A (human, UniProt P08476 311-426); assay: cell-based or functional assay
T2 sequence: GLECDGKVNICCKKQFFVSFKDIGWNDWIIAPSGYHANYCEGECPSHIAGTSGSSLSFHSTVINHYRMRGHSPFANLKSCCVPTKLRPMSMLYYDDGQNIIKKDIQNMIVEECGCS

[3] = target: T3, Activin AC (human, UniProt P55103 237-352); assay: SPR (Biacore), mAb captured on anti-Fc, Activin AC injected, 37 C
T3 construct: Heterodimer of one betaA and one betaC subunit; bought (R&D Systems #4879-AC)
T3 sequence 1: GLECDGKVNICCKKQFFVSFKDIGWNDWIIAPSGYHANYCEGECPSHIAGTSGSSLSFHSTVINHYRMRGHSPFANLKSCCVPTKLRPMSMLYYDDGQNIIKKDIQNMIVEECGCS
T3 sequence 2: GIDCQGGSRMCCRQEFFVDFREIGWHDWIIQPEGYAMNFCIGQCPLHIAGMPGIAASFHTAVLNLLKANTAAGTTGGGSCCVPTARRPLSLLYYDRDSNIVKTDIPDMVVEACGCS
Method: (§1) Antibody-antigen association was monitored for 240 seconds while dissociation in buffer was monitored for 600 seconds. Kinetic association and dissociation rate constants were determined by processing and fitting the data using Scrubber software version 2.0c. Binding equilibrium dissociation constants (KD) and dissociative half-lives (t_{1/2}) were then calculated from the kinetic rate constants as: KD (M)=kd/kₐ and t_{1/2} (min)=[ln 2/(60*kd)]. (NB=no binding observed under the conditions used; NT=not tested).

[4] = target: T3, Activin AC; assay: cell-based or functional assay
[5] = target: T4, Activin AB (human, UniProt P08476 311-426; P09529 293-407); assay: cell-based or functional assay
T4 chain 1: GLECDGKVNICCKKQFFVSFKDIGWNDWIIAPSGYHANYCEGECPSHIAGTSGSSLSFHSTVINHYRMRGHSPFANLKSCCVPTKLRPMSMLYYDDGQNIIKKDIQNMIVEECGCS
T4 chain 2: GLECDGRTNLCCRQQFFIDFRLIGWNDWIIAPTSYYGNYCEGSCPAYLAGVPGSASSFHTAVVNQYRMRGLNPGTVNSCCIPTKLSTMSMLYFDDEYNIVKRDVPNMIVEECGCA

[6] = target: T4, Activin AB; assay: SPR (Biacore), mAb captured on anti-Fc, Activin AB injected, 25 C
Method: as §1

[7] = target: T3, Activin AC; assay: SPR (Biacore), mAb captured on anti-Fc, Activin AC injected, 25 C
Method: as §1

[8] = target: T4, Activin AB; assay: SPR (Biacore), mAb captured on anti-Fc, Activin AB injected, 37 C
Method: as §1

[9] = target: T5, Activin A (homodimer of two inhibin βA subunits; R&D Systems, #338-AC) (human, UniProt P08476 311-426); assay: SPR blocking: 5 nM Activin A + 0.94 nM binder over hActRIIA-hFc surface
T5 construct: Bought protein; also called inhibin-βA dimer
T5 sequence: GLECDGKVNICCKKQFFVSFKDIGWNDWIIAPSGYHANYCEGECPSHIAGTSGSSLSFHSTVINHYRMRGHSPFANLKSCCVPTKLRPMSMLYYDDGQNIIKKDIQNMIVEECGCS
Method: (§2) The binding signal (RU) was measured at 150 seconds after the start of the injection, and this signal was subtracted by the measured RU value for a negative control reference surface to determine the specific binding signal.

[10] = target: T5, Activin A (homodimer of two inhibin βA …); assay: SPR blocking: 5 nM Activin A + 7.50 nM binder over hActRIIA-hFc surface
Method: as §2

[11] = target: T5, Activin A (homodimer of two inhibin βA …); assay: SPR blocking: 5 nM Activin A + 1.88 nM binder over Follistatin-288 surface
Method: as §2

[12] = target: T5, Activin A (homodimer of two inhibin βA …); assay: SPR blocking: 5 nM Activin A + 0.94 nM binder over hActRIIB-hFc (Control 4) surface
[13] = target: T5, Activin A (homodimer of two inhibin βA …); assay: SPR blocking: 5 nM Activin A + 3.75 nM binder over hActRIIB-hFc (Control 4) surface
Method: as §2

[14] = target: T5, Activin A (homodimer of two inhibin βA …); assay: SPR blocking: 5 nM Activin A + 1.88 nM binder over hActRIIB-hFc (Control 4) surface
Method: as §2

[15] = target: T5, Activin A (homodimer of two inhibin βA …); assay: SPR blocking: 5 nM Activin A + 0.00 nM binder over hActRIIA-hFc surface
Method: as §2

[16] = target: T5, Activin A (homodimer of two inhibin βA …); assay: SPR blocking: 5 nM Activin A + 0.00 nM binder over hActRIIB-hFc (Control 4) surface
Method: as §2

[17] = target: T5, Activin A (homodimer of two inhibin βA …); assay: SPR blocking: 5 nM Activin A + 15 nM binder over hActRIIA-hFc surface
Method: as §2

[18] = target: T5, Activin A (homodimer of two inhibin βA …); assay: SPR blocking: 5 nM Activin A + 15 nM binder over Follistatin-288 surface
Method: as §2

[19] = target: T5, Activin A (homodimer of two inhibin βA …); assay: SPR blocking: 5 nM Activin A + 60 nM binder over hActRIIA-hFc surface
Method: as §2

[20] = target: T5, Activin A (homodimer of two inhibin βA …); assay: SPR blocking: 5 nM Activin A + 60 nM binder over Follistatin-288 surface
Method: as §2

[21] = target: T5, Activin A (homodimer of two inhibin βA …); assay: SPR blocking: 5 nM Activin A + 7.50 nM binder over hActRIIB-hFc (Control 4) surface
[22] = target: T5, Activin A (homodimer of two inhibin βA …); assay: SPR blocking: 5 nM Activin A + 15 nM binder over hActRIIB-hFc (Control 4) surface
[23] = target: T5, Activin A (homodimer of two inhibin βA …); assay: SPR blocking: 5 nM Activin A + 60 nM binder over hActRIIB-hFc (Control 4) surface
Method: as §2

[24] = target: T5, Activin A (homodimer of two inhibin βA …); assay: SPR blocking: 5 nM Activin A + 30 nM binder over hActRIIB-hFc (Control 4) surface
Method: as §2

[25] = target: T5, Activin A (homodimer of two inhibin βA …); assay: SPR blocking: 5 nM Activin A + 1.88 nM binder over hActRIIA-hFc surface
Method: as §2

[26] = target: T5, Activin A (homodimer of two inhibin βA …); assay: SPR blocking: 5 nM Activin A + 0.94 nM binder over Follistatin-288 surface
Method: as §2

[27] = target: T5, Activin A (homodimer of two inhibin βA …); assay: SPR blocking: 5 nM Activin A + 0 nM binder over Follistatin-288 surface
Method: as §2

[28] = target: T5, Activin A (homodimer of two inhibin βA …); assay: SPR blocking: 5 nM Activin A + 30 nM binder over hActRIIA-hFc surface
Method: as §2

[29] = target: T5, Activin A (homodimer of two inhibin βA …); assay: SPR blocking: 5 nM Activin A + 30 nM binder over Follistatin-288 surface
Method: as §2

[30] = target: T5, Activin A (homodimer of two inhibin βA …); assay: SPR blocking: 5 nM Activin A + 3.75 nM binder over hActRIIA-hFc surface
Method: as §2

[31] = target: T5, Activin A (homodimer of two inhibin βA …); assay: SPR blocking: 5 nM Activin A + 7.5 nM binder over Follistatin-288 surface
Method: as §2

[32] = target: T5, Activin A (homodimer of two inhibin βA …); assay: SPR blocking: 5 nM Activin A + 3.75 nM binder over Follistatin-288 surface
Method: as §2

B1: H4H10433P2 (antibody, human IgG4, V domains shown)
VH: EVQLVESGGGLVQAGRSLRLSCEASGFTFDDYGMHWVRQGPGKGLEWVSGISWNSGNIDYADSVKGRFTISRDNAKTSLYLQMNSLKTDDTALYFCAKDAVGFNWNYFLFDYWGQGTLVTVSS
VL: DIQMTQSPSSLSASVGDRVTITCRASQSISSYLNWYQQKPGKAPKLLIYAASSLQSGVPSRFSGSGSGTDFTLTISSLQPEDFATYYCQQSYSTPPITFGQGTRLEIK
- IC50 [M], inhibition of 50 pM Activin B in A204/CAGAx12-Luc Smad2/3-luciferase bioassay [1]: 1e-07 M
- IC50 [M], inhibition of 100 pM Activin A in A204/CAGAx12-Luc Smad2/3-luciferase bioassay [2]: 1.5e-10 M

B2: H4H10440P2 (antibody, human IgG4, V domains shown)
VH: EVQLVESGGGVVQPGGSLRLSCAASTFTFDDFAMHWVRQAPGKGLEWVSLITGDGGSTYYADPVKGRFTISRDNSKNSLYLQMNSLRTEDTALYYCVKDWWIAARPDYYYYGMDVWGQGTTVTVSS
VL: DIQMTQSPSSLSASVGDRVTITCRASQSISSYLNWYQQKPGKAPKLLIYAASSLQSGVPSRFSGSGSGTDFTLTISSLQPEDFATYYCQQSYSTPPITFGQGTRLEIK
- 50 nM Ag Bound (RU) [3]: 13.3 RU
- Kd [3]: 1.05 nM
- koff [3]: 0.000755 s⁻¹
- kon [3]: 718000 M⁻¹ s⁻¹
- t1/2 [3]: 15.3 min
- IC50 [M], inhibition of 50 pM Activin B in A204/CAGAx12-Luc Smad2/3-luciferase bioassay [1]: 5.2e-09 M
- IC50 [M], inhibition of 4 nM Activin AC in A204/CAGAx12-Luc Smad2/3-luciferase bioassay [4]: 7.5e-10 M
- IC50 [M], inhibition of 30 pM Activin AB in A204/CAGAx12-Luc Smad2/3-luciferase bioassay [5]: 4.3e-10 M
- IC50 [M], inhibition of 100 pM Activin A in A204/CAGAx12-Luc Smad2/3-luciferase bioassay [2]: 2.8e-10 M
- 50 nM Ag Bound (RU) [6]: 15.5 RU
- Kd [6]: 0.177 nM
- koff [6]: 0.000526 s⁻¹
- kon [6]: 2.97e+06 M⁻¹ s⁻¹
- t1/2 [6]: 22 min
- 50 nM Ag Bound (RU) [7]: 11.8 RU
- Kd [7]: 0.442 nM
- koff [7]: 0.000227 s⁻¹
- kon [7]: 513000 M⁻¹ s⁻¹
- t1/2 [7]: 50.8 min
- 50 nM Ag Bound (RU) [8]: 17.7 RU
- Kd [8]: 0.314 nM
- koff [8]: 0.00163 s⁻¹
- kon [8]: 5.2e+06 M⁻¹ s⁻¹
- t1/2 [8]: 7.1 min

B3: H4H10423P (antibody, human IgG4, V domains shown)
VH: QVQLQQSGPGLLKPSQTLSLTCAISGDSVSSNSAAWSWIRQSPSRGLEWLGRTYYRANWFNDYALSVKSRITINPVTSTNHFSLQLHSVTPEDTAVYYCAREGALGYYFDSWGQGTLVTVSS
VL: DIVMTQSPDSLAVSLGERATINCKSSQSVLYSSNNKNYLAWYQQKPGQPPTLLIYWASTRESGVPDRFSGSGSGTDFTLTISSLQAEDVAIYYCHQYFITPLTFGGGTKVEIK
notes: H4H prefix means human IgG4 Fc
- % bound RU w/no inhibitor [9]: 112%
- % bound RU w/no inhibitor [10]: 110%
- % bound RU w/no inhibitor [11]: 122%
- % bound RU w/no inhibitor [12]: 93%
- % bound RU w/no inhibitor [13]: 47%
- % bound RU w/no inhibitor [14]: 78%
- % bound RU w/no inhibitor [15]: 100%
- % bound RU w/no inhibitor [16]: 100%
- % bound RU w/no inhibitor [17]: 112%
- % bound RU w/no inhibitor [18]: 96%
- % bound RU w/no inhibitor [19]: 116%
- % bound RU w/no inhibitor [20]: 93%
- % bound RU w/no inhibitor [21]: 42%
- % bound RU w/no inhibitor [22]: 42%
- % bound RU w/no inhibitor [23]: 41%
- % bound RU w/no inhibitor [24]: 41%
- % bound RU w/no inhibitor [25]: 114%
- % bound RU w/no inhibitor [26]: 120%
- % bound RU w/no inhibitor [27]: 100%
- % bound RU w/no inhibitor [28]: 114%
- % bound RU w/no inhibitor [29]: 94%
- % bound RU w/no inhibitor [30]: 111%
- % bound RU w/no inhibitor [31]: 97%
- % bound RU w/no inhibitor [32]: 103%
